From US20200132691A1, “DETECTION AND TARGETING OF TUMOR-PROMOTING NEUTROPHILS” (THE GENERAL HOSPITAL CORPORATION, priority 2017, published 2020) come the findings set out here.

The test system of data set [1] is Ocn+ cells. Kind of data set: In vivo osteoblast depletion with diphtheria toxin. The arrangement: species or system mouse. Particulars: OcnCre;Dtr or OcnCre;Dtr/Yfp mice; flow cytometry, immunohistochemistry, in situ microscopy, bone histomorphometry. The procedure: (§1) Ocn^Cre;Dtr, Ocn^Cre;Dtr/Yfp and control mice lacking either transgene were treated i.p. with DT (100 μl; 20 μg/kg, Sigma-Aldrich) every other day for 9 days with a total of five injections per mouse. In some experiments, osteoblast depletion was performed for 3 consecutive days using DT. For both DT treatment protocols, osteoblast depletion was verified. Body weight was monitored to control for DT-induced toxicity. Osteoblast depletion was verified using histological evaluation of femurs, IHC for osteocalcin and ex vivo whole mount immunofluorescence of Ocn^Cre;Dtr/Yfp mice.

Data set [2] concerns neutrophils. Kind of data set: Neutrophil counts in wild-type mice treated with DT. Particulars: bone marrow.
Data set [3] is described as follows: Body weight monitoring for DT-induced toxicity. The data set is classed as in vivo, mouse. The settings on record: DT-treated mice. The procedure: as §1
Data set [4] relates to splenocytes. Kind of data set: In vitro assay of DT-mediated direct effects on hematopoietic cells (splenocytes).

Turning to diphtheria toxin [DT], the “Ocn+ cell numbers” value in data set [1] is “significantly reduced”. Besides, in data set [2], the neutrophil counts result was “maintained”. Moreover, the body weight result in data set [3] was “did not affect”. The “viability of hematopoietic cells” value in data set [4] (DT concentration used, in vitro DT titration and in vivo cellular staining by flow cytometry) is listed as “did not affect the viability”. The “killing of CD11b+ myeloid cells” value in data set [4] (cells from OcnCre;Dtr mice, in vitro) is on record as “not killed”. Moreover, the “killing of DTR+ cells” value in data set [4] (positive control, in vitro) was “ability to kill”.
